Consider 1 protein from FireProtDB (doi:10.1016/j.jmb.2009.08.013).

The conditions of this data set: Bos taurus; pH 7.2; 10 °C; Urea; Fluorescence; Sodium phosphate 25 mM; KCl 150 mM; whole UniProt chain shown.

B1: Cellular tumor antigen p53 wild type, P67939 (protein)
chain: MEESQAELNVEPPLSQETFSDLWNLLPENNLLSSELSAPVDDLLPYTDVATWLDECPNEAPQMPEPSAPAAPPPATPAPATSWPLSSFVPSQKTYPGNYGFRLGFLQSGTAKSVTCTYSPSLNKLFCQLAKTCPVQLWVDSPPPPGTRVRAMAIYKKLEHMTEVVRRCPHHERSSDYSDGLAPPQHLIRVEGNLRAEYLDDRNTFRHSVVVPYESPEIDSECTTIHYNFMCNSSCMGGMNRRPILTIITLEDSCGNLLGRNSFEVRVCACPGRDRRTEEENLRKKGQSCPEPPPRSTKRALPTNTSSSPQPKKKPLDGEYFTLQIRGFKRYEMFRELNDALELKDALDGREPGESRAHSSHLKSKKRPSPSCHKKPMLKREGPDSD
Regarding B1, the “denaturant midpoint (higher = more stable)” value was 5.21 M.
